In article PMC11184549:

Experiments:
[1] = molecular target: FITC-labeled DENV2 NS5 NLS_(C-term) peptide (dengue virus serotype 2 (DENV2)); assay: fluorescence polarisation
[2] = molecular target: FITC-labeled DENV3 NS5 NLS_(C-term) peptide (dengue virus serotype 3 (DENV3)); assay: fluorescence polarisation

human IMPα7 lacking the IMPβ-binding domain (IMPαΔIBB), sequence (O60684 73-536, stated change not applied): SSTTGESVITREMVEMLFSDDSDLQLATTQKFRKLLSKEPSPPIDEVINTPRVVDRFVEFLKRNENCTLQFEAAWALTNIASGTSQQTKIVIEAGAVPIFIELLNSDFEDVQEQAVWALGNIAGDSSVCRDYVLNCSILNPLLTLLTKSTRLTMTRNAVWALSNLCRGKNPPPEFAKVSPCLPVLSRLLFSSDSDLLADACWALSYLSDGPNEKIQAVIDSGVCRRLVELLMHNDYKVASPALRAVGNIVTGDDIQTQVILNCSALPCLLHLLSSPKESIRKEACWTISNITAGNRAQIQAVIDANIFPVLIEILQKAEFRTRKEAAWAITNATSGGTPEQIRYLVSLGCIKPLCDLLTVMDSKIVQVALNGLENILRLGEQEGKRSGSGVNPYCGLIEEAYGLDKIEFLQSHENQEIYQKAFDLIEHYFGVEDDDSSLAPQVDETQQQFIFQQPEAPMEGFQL
human IMPα3 lacking the IMPβ-binding domain (IMPαΔIBB), sequence (O00629 64-521, stated change not applied): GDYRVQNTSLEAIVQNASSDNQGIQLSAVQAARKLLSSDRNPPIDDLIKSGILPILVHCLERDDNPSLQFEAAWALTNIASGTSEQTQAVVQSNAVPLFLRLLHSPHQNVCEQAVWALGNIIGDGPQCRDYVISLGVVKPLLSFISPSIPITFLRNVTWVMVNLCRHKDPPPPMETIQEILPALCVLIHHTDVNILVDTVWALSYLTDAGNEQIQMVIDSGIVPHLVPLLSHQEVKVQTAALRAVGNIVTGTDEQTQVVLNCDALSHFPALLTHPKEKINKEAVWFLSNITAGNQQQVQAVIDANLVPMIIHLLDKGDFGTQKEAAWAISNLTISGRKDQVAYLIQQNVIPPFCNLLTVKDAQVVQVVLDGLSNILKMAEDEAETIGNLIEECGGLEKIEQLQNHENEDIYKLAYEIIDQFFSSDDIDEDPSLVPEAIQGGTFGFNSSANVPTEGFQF

Substance	Kd [1] [nM]	Kd [2] [nM]
human IMPα7 lacking the IMPβ-binding domain (IMPαΔIBB) (from UniProt O60684 73-536) (domain or fragment)	180	190
human IMPα3 lacking the IMPβ-binding domain (IMPαΔIBB) (from UniProt O00629 64-521) (domain or fragment)	80	150
human IMPα1 lacking the IMPβ-binding domain (IMPαΔIBB) (from UniProt P52292 70-529) (domain or fragment)	90	140
